Experimental data: US20020110800

Target: wild-type TrkA, baculovirus-expressed, activated (autophosphorylated) (UniProt P04629)

B1: SHP-2 (enzyme, UniProt Q06124 2-593, looked up, species assumed)
Tyrosine-protein phosphatase non-receptor type 11: TSRRWFHPNITGVEAENLLLTRGVDGSFLARPSKSNPGDFTLSVRRNGAVTHIKIQNTGDYYDLYGGEKFATLAELVQYYMEHHGQLKEKNGDVIELKYPLNCADPTSERWFHGHLSGKEAEKLLTEKGKHGSFLVRESQSHPGDFVLSVRTGDDKGESNDGKSKVTHVMIRCQELKYDVGGGERFDSLTDLVEHYKKNPMVETLGTVLQLKQPLNTTRINAAEIESRVRELSKLAETTDKVKQGFWEEFETLQQQECKLLYSRKEGQRQENKNKNRYKNILPFDHTRVVLHDGDPNEPVSDYINANIIMPEFETKCNNSKPKKSYIATQGCLQNTVNDFWRMVFQENSRVIVMTTKEVERGKSKCVKYWPDEYALKEYGVMRVRNVKESAAHDYTLRELKLSKVGQGNTERTVWQYHFRTWPDHGVPSDPGGVLDFLEEVHHKQESIMDAGPVVVHCSAGIGRTGTFIVIDILIDIIREKGVDCDIDVPKTIQMVRSQRSGMVQTEAQYRFIYMAVQHYIETLQRRIEEEQKSKRKGHEYTNIKYSLADQTSGDQSPLPPCTPTPPCAEMREDSARVYENVGLMQQQKSFR
dephosphorylation of 32P-autophosphorylated Trk in vitro: approximately 5-fold dephosphorylation
